What was measured:
[1] = molecular target: tbcd5_human TBC1D5 (UniProt Q92609)
[2] = molecular target: vps35_mouse Vps35 (UniProt Q9EQH3)

Substance: Vacuolar protein sorting-associated protein 29 (Mus musculus) (from UniProt Q9QZ88) L152E
- effect of a mutation on the interaction [1]: disrupting interaction strength
- effect of a mutation on the interaction [2]: with no effect

From IntAct's records for PubMed 20923837
